Drawing on the supplement of paper PMC10567573, this text covers protein stability index for 94 variants.

B1: WSB1 (parent)
chain: DLKDDGNMMKVLRGHQNWVYSCAF
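Also: lentivirally expressed fusions sorted by FACS into six bins by GFP to DsRed ratio, PSI derived from sequencing read proportions per bin multiplied by bin number.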

The variants in the data set derive from B1. The data set can be described thus: protein stability index of a GFP-peptide fusion (GPS, HEK-293T) (PSI 1-6); higher = more stable. The following applies: c terminus: a fixed tail appended.
In the case of DLKDDGNMMKVLHGHQNWVYSCAF [R13H], the protein stability index was 1.46.
With DLKDDGNMMKVLQGHQNWVYSCAF [R13Q], the protein stability index was 2.45.
With DLKDDGNMMKVLAGHQNWVYSCAF [R13A] the figure was 1.73.
With DLKDDGNMMKVLFGHQNWVYSCAF [R13F] the figure was 1.92.
With DLKDDGNMMKVLPGHQNWVYSCAF [R13P] the figure was 2.02; with DLKDDGNMMKVLDGHQNWVYSCAF [R13D], 1.32; with DLKDDGNMMKVLYGHQNWVYSCAF [R13Y], 2.46.
For DLKDDGNMMKVLEGHQNWVYSCAF [R13E], the protein stability index worked out at 2.88.
Under DLKDDGNMMKVLKGHQNWVYSCAF [R13K] stands 1.58.
For the variant DLKDDGNMMKVLMGHQNWVYSCAF [R13M], the protein stability index stood at 2.28.
For DLKDDGNMMKVLTGHQNWVYSCAF [R13T], the protein stability index is 2.21.
Regarding DLKDDGNMMKVLWGHQNWVYSCAF [R13W], the protein stability index is 3.05.
With DLKDDGNMMKVLNGHQNWVYSCAF [R13N] the figure was 2.74; with DLKDDGNMMKVLSGHQNWVYSCAF [R13S], 1.53; with DLKDDGNMLKVLRGHQNWVYSCAF [M9L], 1.61.
On to DLKDDGNMSKVLRGHQNWVYSCAF [M9S], for which the protein stability index is 1.43.
Under DLKDDGNMKKVLRGHQNWVYSCAF [M9K] stands 1.95; under DLKDDGNMHKVLRGHQNWVYSCAF [M9H], 2.19.
Under DLKDDGNMRKVLRGHQNWVYSCAF [M9R] stands 1.54; under DLKDDGNMEKVLRGHQNWVYSCAF [M9E], 2.03.
With DLKDDGNMNKVLRGHQNWVYSCAF [M9N] the figure was 1.89; with DLKDDGNMFKVLRGHQNWVYSCAF [M9F], 2.67; with DLKDDGNMQKVLRGHQNWVYSCAF [M9Q], 1.73.
On to DLKDDGNMTKVLRGHQNWVYSCAF [M9T], for which the protein stability index is 1.45.
Under DLKDDGNMAKVLRGHQNWVYSCAF [M9A] stands 2.02; under DLKDDGNMVKVLRGHQNWVYSCAF [M9V], 1.27.
On to DLKDDGNMDKVLRGHQNWVYSCAF [M9D], for which the protein stability index amounted to 1.88.
Turning to DLKDDGNMYKVLRGHQNWVYSCAF [M9Y], the protein stability index was 1.06.
With DLKDDGNMIKVLRGHQNWVYSCAF [M9I] the figure was 4.37.
As for DLKDDGNMMKVNRGHQNWVYSCAF [L12N], the protein stability index was 1.5.
Under DLKDDGNMMKVRRGHQNWVYSCAF [L12R] stands 3.69; under DLKDDGNMMKVWRGHQNWVYSCAF [L12W], 2.38; under DLKDDGNMMKVMRGHQNWVYSCAF [L12M], 1.24.
With DLKDDGNMMKVERGHQNWVYSCAF [L12E] the figure was 2.27; with DLKDDGNMMKVQRGHQNWVYSCAF [L12Q], 1.16.
With DLKDDGNMMKVIRGHQNWVYSCAF [L12I] the figure was 1.49; with DLKDDGNMMKVGRGHQNWVYSCAF [L12G], 1.91; with DLKDDGNMMKVKRGHQNWVYSCAF [L12K], 1.85.
In the case of DLKDDGNMMKVHRGHQNWVYSCAF [L12H], the protein stability index was 1.44.
For the variant DLKDDGNMMKVCRGHQNWVYSCAF [L12C], the protein stability index is 2.38.
Under DLKDDGNMMKVDRGHQNWVYSCAF [L12D] stands 2.01; under DLKDDGNMMKVYRGHQNWVYSCAF [L12Y], 2.74.
In the case of DLKDDGNMMKVTRGHQNWVYSCAF [L12T], the protein stability index is 1.37.
With DLKDDGNMMKVPRGHQNWVYSCAF [L12P] the figure was 2.2.
Under DLKDDGNMMKVFRGHQNWVYSCAF [L12F] stands 1.67.
Under DLKDDGNMMKTLRGHQNWVYSCAF [V11T] stands 2.41; under DLKDDGNMMKDLRGHQNWVYSCAF [V11D], 1.93; under DLKDDGNMMKILRGHQNWVYSCAF [V11I], 1.59.
On to DLKDDGNMMKKLRGHQNWVYSCAF [V11K], for which the protein stability index was 1.57.
Under DLKDDGNMMKNLRGHQNWVYSCAF [V11N] stands 1.57.
With DLKDDGNMMKELRGHQNWVYSCAF [V11E] the figure was 2.01.
Under DLKDDGNMMKALRGHQNWVYSCAF [V11A] stands 1.75; under DLKDDGNMMKPLRGHQNWVYSCAF [V11P], 2.31; under DLKDDGNMMKFLRGHQNWVYSCAF [V11F], 2.64.
With DLKDDGNMMKRLRGHQNWVYSCAF [V11R], the protein stability index amounted to 1.69.
With DLKDDGNMMKQLRGHQNWVYSCAF [V11Q] the figure was 2.62.
With DLKDDGNMMKSLRGHQNWVYSCAF [V11S] the figure was 2.79; with DLKDDGNMMKGLRGHQNWVYSCAF [V11G], 1.65.
With DLKDDGNMMKMLRGHQNWVYSCAF [V11M] the figure was 2; with DLKDDGNMMKYLRGHQNWVYSCAF [V11Y], 2.26.
With DLKDDGNMMKWLRGHQNWVYSCAF [V11W], the protein stability index was 2.
Under DLKDDGNMMKLLRGHQNWVYSCAF [V11L] stands 1.63.
With DLKDDGNMMKVLRCHQNWVYSCAF [G14C] the figure was 2.43; with DLKDDGNMMKVLRKHQNWVYSCAF [G14K], 2.23; with DLKDDGNMMKVLRPHQNWVYSCAF [G14P], 1.91.
On to DLKDDGNMMKVLRSHQNWVYSCAF [G14S], for which the protein stability index was determined as 2.
Under DLKDDGNMMKVLRTHQNWVYSCAF [G14T] stands 2.39.
Under DLKDDGNMMKVLREHQNWVYSCAF [G14E] stands 1.45.
For DLKDDGNMMKVLRQHQNWVYSCAF [G14Q], the protein stability index stood at 2.31.
With DLKDDGNMMKVLRHHQNWVYSCAF [G14H] the figure was 1.81.
Under DLKDDGNMMKVLRLHQNWVYSCAF [G14L] stands 2.05.
As to DLKDDGNMMKVLRNHQNWVYSCAF [G14N], the protein stability index amounted to 1.26.
With DLKDDGNMMKVLRAHQNWVYSCAF [G14A] the figure was 1.33; with DLKDDGNMMKVLRRHQNWVYSCAF [G14R], 1.29.
With DLKDDGNMMKVLRDHQNWVYSCAF [G14D] the figure was 1.91; with DLKDDGNYMKVLRGHQNWVYSCAF [M8Y], 1.39; with DLKDDGNWMKVLRGHQNWVYSCAF [M8W], 1.09.
With DLKDDGNMMRVLRGHQNWVYSCAF [K10R] the figure was 2.4; with DLKDDGNMMNVLRGHQNWVYSCAF [K10N], 1.31.
Consider DLKDDGNMMMVLRGHQNWVYSCAF [K10M], for which the protein stability index was 1.55.
In the case of DLKDDGNMMFVLRGHQNWVYSCAF [K10F], the protein stability index is 4.7.
With DLKDDGNMMVVLRGHQNWVYSCAF [K10V] the figure was 2.1; with DLKDDGNMMQVLRGHQNWVYSCAF [K10Q], 2.02.
Take DLKDDGNMMDVLRGHQNWVYSCAF [K10D]: the protein stability index was determined as 1.72.
With DLKDDGNMMYVLRGHQNWVYSCAF [K10Y] the figure was 2.78; with DLKDDGNMMPVLRGHQNWVYSCAF [K10P], 2.27; with DLKDDGNMMSVLRGHQNWVYSCAF [K10S], 1.96.
For the variant DLKDDGNMMAVLRGHQNWVYSCAF [K10A], the protein stability index amounted to 2.38.
As for DLKDDGNMMTVLRGHQNWVYSCAF [K10T], the protein stability index came to 1.5.
With DLKDDGNMMLVLRGHQNWVYSCAF [K10L], the protein stability index is 2.53.
Under DLKDDGNMMCVLRGHQNWVYSCAF [K10C] stands 2.19; under DLKDDGNMMEVLRGHQNWVYSCAF [K10E], 1.49.
Under DLKDDGNMMHVLRGHQNWVYSCAF [K10H] stands 1.96; under DLKDDGNMMIVLRGHQNWVYSCAF [K10I], 2.34.
